# B1: 310–18A5 Fab (Fab, V domains shown)
# VH: QVQLMQSGTEVKKPGSSVRVSCKASGSTFNSDAISWVRQAPGQGLEWMGGILGMFRTVNYAQRFQGRVTITADELMSTAYMELSGLRFEDTAVYYCARGDGYKPNFLRYWGQGTLITVSS
# VL: TLSLSPGERATLSCRASQSVSSTSLAWYQQKFGQAPRLLIYGASNRATGIPDRFSGSGSGTDFTLTISRLEPEDFAVYYCQQYGNSLTFGGGTKVEIK
# Experiments:
# [1] = biological target: T1, mini-HA #4900 (Influenza A virus H1N1, designed stem …, stabilised); test: BLI; His-tagged antigen at 0.5 uM loaded on anti-Penta-HIS (HIS1K) biosensors, Fab in solution; room temperature; 1x PBS pH 7.4, 0.01% BSA, 0.002% Tween 20; 1:1 binding model; conditions: both partners purified
# T1 construct: also called H1 stem-based construct; HA stem-based construct without the HA head domain; not shown: 6xHis, C-terminal, kept
# [2] = biological target: T2, H1N1 A/Solomon Islands/3/2006 (SI06) HA (Influenza A virus, A/Solomon …, UniProt A7Y8I1); test: as above; conditions: both partners purified
# T2 construct: also called HA from H1N1 A/Solomon Island/3/2006
binder,measurement,setting,value
B1,Kd,[1],1000 pM
same,Kd,[2],200 pM
